The results in this text go back to paper PMC6821609.

The data set has as its target T1, HNF4α (hepatocyte nuclear factor 4α) (Homo sapiens, UniProt P41235 1-474).
T1 sequence: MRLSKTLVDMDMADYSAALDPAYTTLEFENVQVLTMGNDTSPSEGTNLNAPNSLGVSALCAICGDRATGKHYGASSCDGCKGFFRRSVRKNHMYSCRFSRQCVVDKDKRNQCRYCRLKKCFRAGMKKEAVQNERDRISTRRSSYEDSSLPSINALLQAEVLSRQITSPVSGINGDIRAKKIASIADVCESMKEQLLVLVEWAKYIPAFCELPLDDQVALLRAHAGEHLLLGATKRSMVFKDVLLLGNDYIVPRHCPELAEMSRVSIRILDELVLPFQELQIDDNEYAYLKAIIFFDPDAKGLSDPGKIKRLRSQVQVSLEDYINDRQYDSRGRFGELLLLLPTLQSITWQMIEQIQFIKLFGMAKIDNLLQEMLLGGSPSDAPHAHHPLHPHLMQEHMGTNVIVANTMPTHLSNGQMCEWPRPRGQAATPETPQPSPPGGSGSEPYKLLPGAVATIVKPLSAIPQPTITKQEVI
The data set is described as follows: EMSA.

B1: F9-wt (cfa_F9n_wt_Biotin) (dsDNA)
DNA 1: CAGAAGTAAATACAGCTCAACTTGTACTTTGGAACAACTGGTCAACC
DNA 2: GGTTGACCAGTTGTTCCAAAGTACAAGTTGAGCTGTATTTACTTCTG
Turning to B1, the binding result is “binds”.

B2: F9-mut (cfa_F9n_mut_Biotin) (dsDNA)
DNA 1: CCAGAAGTAAATACAGCTCAACTTGTATTTGGAACAACTGGTCAACC
DNA 2: GGTTGACCAGTTGTTCCAAATACAAGTTGAGCTGTATTTACTTCTGG
Take B2: the binding result was “no binding”.
